In US20210393685A1 (TRUSTEES OF COLUMBIA UNIVERSITY IN THE CITY OF NEW YORK, published 2021):

B1: anti-CD33-ULBP1 chimera 1 (CD33-ULBP1-1) (other)
chain: EIVLTQSPGSLAVSPGERVTMSCKSSQSVFFSSSQKNYLAWYQQIPGQSPRLLIYWASTRESGVPDRFTGSGSGTDFTLTISSVQPEDLAIYYCHQYLSSRTFGQGTKLEIKRGSTSGSGKPGSGEGSTKGQVQLQQPGAEVVKPGASVKMSCKASGYTFTSYYIHWIKQTPGQGLEWVGVIYPGNDDISYNQKFQGKATLTADKSSTTAYMQLSSLTSEDSAVYYCAREVRLRYFDVWGQGTTVTVSSSSSAGGGGSGGGGSGGGGSWVDTHCLCYDFIITPKSRPEPQWCEVQGLVDERPFLHYDCVNHKAKAFASLGKKVNVTKTWEEQTETLRDVVDFLKGQLLDIQVENLIPIEPLTLQARMSCEHEAHGHGRGSWQFLFNGQKFLLFDSNNRKWTALHPGAKKMTEKWEKNRDVTMFFQKISLGDCKMWLEEFLMYWEQMLDPTKPPSLAPGEQKLISEEDLHHHHHH
notes: also called αCD33-ULBP1 chimera 1
B2: anti-CD33-ULBP1 chimera 2 (CD33-ULBP1-2, with proline) (other)
chain: EIVLTQSPGSLAVSPGERVTMSCKSSQSVFFSSSQKNYLAWYQQIPGQSPRLLIYWASTRESGVPDRFTGSGSGTDFTLTISSVQPEDLAIYYCHQYLSSRTFGQGTKLEIKRGSTSGSGKPGSGEGSTKGQVQLQQPGAEVVKPGASVKMSCKASGYTFTSYYIHWIKQTPGQGLEWVGVIYPGNDDISYNQKFQGKATLTADKSSTTAYMQLSSLTSEDSAVYYCAREVRLRYFDVWGQGTTVTVSSSSSAGGGGSGGGGSGGGGSPWVDTHCLCYDFIITPKSRPEPQWCEVQGLVDERPFLHYDCVNHKAKAFASLGKKVNVTKTWEEQTETLRDVVDFLKGQLLDIQVENLIPIEPLTLQARMSCEHEAHGHGRGSWQFLFNGQKFLLFDSNNRKWTALHPGAKKMTEKWEKNRDVTMFFQKISLGDCKMWLEEFLMYWEQMLDPTKPPSLAPGEQKLISEEDLHHHHHH
notes: also called αCD33-ULBP1 chimera 2

Target: T1, CD33 on cord blood CD34+ cells (human, UniProt P20138 18-364)
T1 construct: whole, on cells; also called CD33 antigen
Test: flow cytometry on CD33-expressing cord blood CD34+ cells, detected with FITC anti-Myc antibody
Method: The binding of the anti-CD33-ULBP1 chimera with CD33 antigen-expressing cord blood CD34+ cells or NKG2D-expressing primary NK cells was tested using flow cytometry. Briefly, primary NK cells were purified from peripheral blood of donors. CD34+ cells were purified from cord blood of donors. Purified cells were incubated with the elute from the mock, chimera 1 or chimera 2 proteins purified from the cell supernatant. The cells were also incubated with FITC-conjugated anti-Myc antibody and analyzed using a flow cytometer.

T1 sequence (P20138 18-364): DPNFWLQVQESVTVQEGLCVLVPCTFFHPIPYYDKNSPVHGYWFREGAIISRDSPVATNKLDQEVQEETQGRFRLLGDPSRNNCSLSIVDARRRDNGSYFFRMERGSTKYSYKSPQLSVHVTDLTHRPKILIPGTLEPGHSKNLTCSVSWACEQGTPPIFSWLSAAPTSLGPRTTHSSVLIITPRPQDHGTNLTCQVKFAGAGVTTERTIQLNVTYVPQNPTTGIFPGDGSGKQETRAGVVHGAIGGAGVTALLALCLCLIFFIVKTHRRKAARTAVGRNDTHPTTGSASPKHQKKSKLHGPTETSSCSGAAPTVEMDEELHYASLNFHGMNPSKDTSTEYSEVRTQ

Row | Binder | binding result
1 | B1 | binds
2 | B2 | binds
